According to PMC5615210, “Design and Characterization of a Human Monoclonal Antibody that Modulates Mutant Connexin 26 Hemichannels Implicated in Deafness and Skin Disorders” (Frontiers in Molecular Neuroscience, 2017):
Ends that are not written are not given here. * marks the point of attachment. Biotin = O=C1N[C@H]2[C@H](CS[C@H]2CCCCC(=O)*)N1

Key:
[1] = biological target: endogenous Cx26 of mouse cochlear organotypic cultures (Mus musculus C57BL6/N, UniProt Q00977); assay: immunostaining of cells or tissue; cochlear organotypic cultures of P5 mice fixed in 4% PFA, not permeabilised, abEC1.1 (2 ug/ml) overnight at 4 C, fluorescein anti-human IgG secondary antibody, confocal microscopy; control with abEC1.1 pre-incubated overnight with pepEC1.1 at 1:10 (w/w); conditions: one partner purified
[2] = biological target: T1, pepEC1.1, peptide corresponding to residues 41-56 of Cx26 (Homo sapiens); assay: ELISA; avidin-coated wells (1 ug/well), biotinylated pepEC1.1 captured (0.05 ug/well), abEC1.1 (1 mg/ml, diluted 1:100 in M-PBST) 1 h at 37 C, goat anti-human HRP conjugate, ABTS, OD at 405 nm; conditions: both partners purified
T1 construct: connexin 26 (Cx26), residues 41-56 in the EC1 domain; also called bait peptide; cognate peptide; source: synthetic peptide (Chinese Peptide Company)
T1 chain: Biotin-KEVWGDEQADFVCNTL

B1: abEC1.1 antibody (scFv-Fc fusion protein) (scFv, V domains shown)
VH: QVQLQQSGGGVVQPGRSLRLSCAASGFTFSSYAMHWVRQAPGKGLEWVAVISHGGSNKYYADSVKGRFTISRDNSKNTLYLQMNSLRAEDTAVYYCARDFSWRGYYMDVWGKGTLVTVSS
VL: ETTLTQSPATLSLSPGERATLSCRASQSISSYLAWYQQKPGQAPRLLIYGASTRATGIPDRFSGSGSGTDFTLTISRLEPEDFAVYYCQQYGSSPRTFGGGTKVEIK
notes: scFv domain of abEC1.1 (VH and VL joined by a linker of seven amino acids); scFv-Fc format from a modified pFUSE vector (pfuse-hg1fc2); also called wild type abEC1.1; source: FreeStyle 293-F cells, transfected, purified (HiTrap Protein A HP); not shown: Fc (hinge and Fc of human IgG1), C-terminal, kept
Question: Does B1 bind [1]?
Answer: binds

Question: Does B1 bind [2]?
Answer: binds
